Results on 3 molecules are retold here after patent US20220340685A1, “COMBINATION THERAPY WITH ENTPD2 AND CD73 ANTIBODIES” (Novartis AG, priority 2019, published 2022).

One data set deals with T1, ENTPD2 (Homo sapiens, UniProt Q9Y5L3).
T1 sequence (Q9Y5L3 1-495): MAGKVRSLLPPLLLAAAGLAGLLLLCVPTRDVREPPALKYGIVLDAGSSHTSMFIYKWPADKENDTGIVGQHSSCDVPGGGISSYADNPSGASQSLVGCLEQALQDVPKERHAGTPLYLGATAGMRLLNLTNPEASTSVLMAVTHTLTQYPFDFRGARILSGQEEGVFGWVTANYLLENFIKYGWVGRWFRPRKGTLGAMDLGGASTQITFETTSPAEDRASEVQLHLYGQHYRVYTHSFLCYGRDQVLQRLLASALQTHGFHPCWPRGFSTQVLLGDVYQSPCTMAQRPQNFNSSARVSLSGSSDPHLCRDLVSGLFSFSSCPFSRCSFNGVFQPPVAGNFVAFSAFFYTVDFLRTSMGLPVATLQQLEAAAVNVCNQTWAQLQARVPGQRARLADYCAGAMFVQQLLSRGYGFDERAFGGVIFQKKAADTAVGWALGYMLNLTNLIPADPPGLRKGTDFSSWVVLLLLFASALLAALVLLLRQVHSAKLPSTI
The data set can be described thus: Cell-based screen of hybridoma-derived mAbs for inhibition of ATP hydrolysis by ENTPD2. An excerpt:
Hybridoma-derived mAbs were screened in a cell-based assay for inhibition of ATP hydrolysis by ENTPD2.

Another data set relates to B16F10 tumor model. The data set can be described thus: Syngeneic B16F10 tumor model, tumor growth. Format: in vivo, C57BL/6 mice. The note with it: mAb13 15 mg/kg, anti-PD-1 Ab 10 mg/kg i.p., days 1, 5, 8. As to the method:
B16F10 model was established in female C57BL/6 mice by subcutaneous injection of 0.5×10^6 cells into the right flank of each mouse. On day 7 once tumors reached approximately 30 mm^3, mice were randomized according to tumor volume into treatment groups (n=10 per group). Mice received treatment of either anti-mouse ENTPD2 mAb13 at a final dose 15 mg/kg, anti-PD-1 Ab (clone RMP1-14 Bio X Cell, West Lebanon, N.H.) i.p. at a final dose of 10 mg/kg or the combination of both treatments on days 1, 5, and 8. All doses were adjusted to individual mouse body weights.

The test system of data set [1] is mouse ENTPD2-engineered 4T1 clone 45. Put plainly: Mouse ENTPD2 engineered 4T1 clone 45 syngeneic model, efficacy. The class given is in vivo, BALB/c mice. Particulars: Day 12 post treatment; mAb15 10 mg/kg i.p.; mAb 350 20 mg/kg i.p. An excerpt:
This model was derived from the 4T1 murine breast cancer model, where mouse ENTPD2 was overexpressed using a retroviral transduction approach. […] Stable mouse ENTPD2 expression (approximately 479,000 receptors) in the model was confirmed in vitro by flow cytometry with the mouse ENTPD2 selective anti mouse ENTPD2 mAb15 (FIG. 27).
Mouse ENTPD2-engineered 4T1 clone 45 model was established in female BALB/c mice by subcutaneous injection of 0.5×10^6 cells into the right flank of each mouse. Once tumors reached approximately 50-80 mm^3, mice were randomized according to tumor volume into treatment groups (n=10 per group). Mice received an i.p. treatment of either Anti-mENTPD2 mAb15 or a non-specific mouse IgG2a isotype control at a final dose of 10 mg/kg on day 0, 2, 5 and 9. Anti-CD73 mAb 350 or a non-specific human IgG4 was dosed i.p. at a final dose of 20 mg/kg on day 0 and 5.

For the next data set, the system named is 4T1 clone 45 tumors. The data set can be described thus: 4T1 clone 45 model, flow cytometry of tumor cells and immune infiltrate on day 12. The class given is in vivo, BALB/c mice. An excerpt:
In order to understand the impact of anti-ENTPD2 mAb15 alone or in combination with anti-CD73 mAb 350 treatments on the tumor microenvironment, mice were euthanized on day 12 and tumors were dissociated in HyClone RPMI1640 media (GE Healthcare, Pittsburg, Pa.) using gentleMacs C-tubes (Miltenyi Biotec, Auburn, Calif.) on the gentleMacs Octo Dissociator (Miltenyi Biotec, Auburn, Calif.). Approximately 2×10^6 dissociated tumor cells were blocked with rat anti-mouse CD16/CD32 Ab (Biolegend, San Diego, Calif.) to reduce non-specific FcyRIII/II binding and subsequently stained with the cocktails of antibodies from either the myeloid or T cell panel:
We also stained cells with an anti-ENTPD2 antibody whose binding to ENTP2 is not blocked by anti-ENTPD2 mAb15. All incubations and washed were performed in FACS Buffer composed of 1× Hyclone Phosphate Buffered Saline (GE Healthcare, Pittsburg, Pa.), 1% HyClone Fetal Bovine Serum (GE Healthcare, Pittsburg, Pa.), 2 mM EDTA (ThermoFisher, Waltham Mass.).

The next data set relates to 4T1 clone 45 model. Put plainly: 4T1 clone 45 model, plasma cytokines and Serum Amyloid P 24 hr post treatment. The class given is in vivo, BALB/c mice. The note with it: 24 hours after the first treatments. The text has this: In order to investigate the immediate impact of ENTPD2 blockade from an immune pathway engagement/biomarker perspective plasma was collected from BALB/c mice 24 hr after treatment with anti mENTPD2 mAb15 alone or in combination with anti-CD73 mAb 350.
Mouse ENTPD2-engineered 4T1 clone 45 model was established in female BALB/c mice by subcutaneous injection of 0.5×10^6 cells into the right flank of each mouse. Once tumors reached approximately 100-150 mm^3, mice were randomized according to tumor volume into treatment groups (n=8 per group). Mice received an i.p. treatment of either Anti-mENTPD2 mAb 15 or a non-specific mouse IgG2a isotype control at a final dose of 10 mg/kg on day 0, 2, 5 and 9. Anti-CD73 mAb 350 or a non-specific human IgG4 was dosed i.p. at a final dose of 20 mg/kg on day 0 and 5 (Table 28).
For the measurement of cytokines and Serum Amyloid P, a marker of inflammation in a mouse, plasma was collected pre-dosing the mice on Day 0 and 24 hours after the first treatments on Day 1.
Briefly, plasma was isolated via collection of blood into Microvette MV-H-300 Capillary Plasma Lithium Heparin Blood Collection tube (Sai Infusion technologies, Lake Villa, Ill.), that were spun down at 1000-2000 ×g for 10 min. Plasma samples were stored at −80C until use. 10 μL of serum diluted 1:5 was used for cytokine analysis using the MSD Mouse Pro-Inflammatory Panel 1 (MSD, Rockville, Md.) and 5 μL of serum diluted 1:10 MSD Mouse Cytokine Panel 1 (MSD, Rockville, Md.) according to manufacturer's recommendations. To determine the levels of SAP 10 μL of undiluted serum was used for analysis in the SAP Quantikine® ELISA (RnD systems) according to manufacturer's recommendations.

B1: mAb16: hybridoma-derived anti-human ENTPD2 lead inhibitory mAb (chimeric); VH/VL DNA SEQ ID NO: 226/230 (antibody, V domains shown)
VH: DIQLQESGPGLVKPSQSLSLTCSVTGYSITSGYYWNWIRQFPGNKLEWMGYISYDGDNNYNPSLKNRISITRDTSKNQFFLKLSSVTTEDTATYYCAGGYYRYGLSYYYVMDYWGQGTSVTVSS
VL: DTVLTQSPASLAVSLGQRATISCKASQSVDYDGNSYMNWYQQKPGQPPKLLIYAASNLESGIPARFSGSGSGTDFTLNIHPVEEEDAATYYCQQSNEDPPTFGGGTKLEIK
modifications: constant regions not cited
B1: in the data set with ENTPD2, the “inhibition of ATP hydrolysis by ENTPD2 (screen outcome)” value is listed as “lead inhibitory mAbs”.

B2: mAb13: anti-mouse ENTPD2 monoclonal antibody; HC SEQ ID NO: 193, LC SEQ ID NO: 204 (antibody)
heavy: QVQLVQSGAELKQPGQSVKISCKASGYTFTHYGMNWVKQAPGQGLKWMGWINTDTGNPTYADDFKGRFVFSLDTSVSTAYLQISNLKNEDTATYYCVRYGTLYSGYGFFFDSWGQGTLVTVSSAKTTAPSVYPLAPVCGDTTGSSVTLGCLVKGYFPEPVTLTWNSGSLSSGVHTFPAVLQSDLYTLSSSVTVTSSTWPSQSITCNVAHPASSTKVDKKIEPRGPTIKPCPPCKCPAPNLLGGPSVFIFPPKIKDVLMISLSPIVTCVVVDVSEDDPDVQISWFVNNVEVHTAQTQTHREDYNSTLRVVSALPIQHQDWMSGKEFKCKVNNKDLPAPIERTISKPKGSVRAPQVYVLPPPEEEMTKKQVTLTCMVTDFMPEDIYVEWTNNGKTELNYKNTEPVLDSDGSYFMYSKLRVEKKNWVERNSYSCSVVHEGLHNHHTTKSFSRTPGK
light: DIMMTQSPSSLSVSAGEKATITCKSSQSLFNSNTNKNYLNWYLQKPGQSPKLLFYYASTRHTGVPDRFIGSGSGTDFTLTITSVQDEDLADYYCQQWYSYPWTFGPGTKLEIKRADAAPTVSIFPPSSEQLTSGGASVVCFLNNFYPKDINVKWKIDGSERQNGVLNSWTDQDSKDSTYSMSSTLTLTKDEYERHNSYTCEATHKTSTSPIVKSFNRNEC
Take B2: the “anti-tumor efficacy (tumor growth relative to No Treatment)” value in the data set on B16F10 tumor model is recorded as “No significant anti-tumor efficacy”.

B3: mAb15: anti-mouse ENTPD2 antibody, T30 variant of mAb13; HC SEQ ID NO: 218, LC SEQ ID NO: 204 (antibody)
heavy: QVQLVQSGAELKQPGQSVKISCKASGYTFHHYGMNWVKQAPGQGLKWMGWINTDTGNPTYADDFKGRFVFSLDTSVSTAYLQISNLKNEDTATYYCVRYGTLYSGYGFFFDSWGQGTLVTVSSAKTTAPSVYPLAPVCGDTTGSSVTLGCLVKGYFPEPVTLTWNSGSLSSGVHTFPAVLQSDLYTLSSSVTVTSSTWPSQSITCNVAHPASSTKVDKKIEPRGPTIKPCPPCKCPAPNLLGGPSVFIFPPKIKDVLMISLSPIVTCVVVDVSEDDPDVQISWFVNNVEVHTAQTQTHREDYNSTLRVVSALPIQHQDWMSGKEFKCKVNNKDLPAPIERTISKPKGSVRAPQVYVLPPPEEEMTKKQVTLTCMVTDFMPEDIYVEWTNNGKTELNYKNTEPVLDSDGSYFMYSKLRVEKKNWVERNSYSCSVVHEGLHNHHTTKSFSRTPGK
light: DIMMTQSPSSLSVSAGEKATITCKSSQSLFNSNTNKNYLNWYLQKPGQSPKLLFYYASTRHTGVPDRFIGSGSGTDFTLTITSVQDEDLADYYCQQWYSYPWTFGPGTKLEIKRADAAPTVSIFPPSSEQLTSGGASVVCFLNNFYPKDINVKWKIDGSERQNGVLNSWTDQDSKDSTYSMSSTLTLTKDEYERHNSYTCEATHKTSTSPIVKSFNRNEC
With B3, in data set [1], the AT/AC value is given as 76.61. Moreover, in the data set with 4T1 clone 45 tumors (day 12), the “CD4+ central memory cells (CD45+MHCII-CD49−CD4+CD62L+CD44+)” value is “significant increase” and the “activated CD8+ T cells (CD45+MHCII-CD49−CD8+CD25+)” value is “significant increase”. For the same molecule, the “cell surface ENTPD2 staining on tumor cells” value with 4T1 clone 45 tumors (day 12, vs hIgG4 and mIgG2 isotype antibodies) is listed as “decrease in cell surface ENTPD2 staining”. Further, in the data set with 4T1 clone 45 model, the “SAP (Serum Amyloid P)” value is “significant increase”, the “plasma IP10” value is “significant increase”, the “plasma MCP1” value is given as “significant increase” and the “plasma MIP-2” value is “significant increase”.
